For one molecule, Kd results are on record in publication PMC6676471.

Where no end group is shown, it is not given here. [ ]: non-standard residue; d: D form. 2Abz = Nc1ccccc1C(=O)O

For orientation: Kd means the free concentration of one partner at which half of the binding sites on the other are occupied at equilibrium, for simple one-to-one binding.

This assay deals with tcFGE_(W228F), inactive variant of formylglycine generating enzyme from Thermomonospora curvata (Thermomonospora curvata) (UniProt D1A7C3). Put plainly: ITC. Background: In ITC the heat of successive injections is recorded.
UniProt D1A7C3, sequence (D1A7C3 20-303 W228F): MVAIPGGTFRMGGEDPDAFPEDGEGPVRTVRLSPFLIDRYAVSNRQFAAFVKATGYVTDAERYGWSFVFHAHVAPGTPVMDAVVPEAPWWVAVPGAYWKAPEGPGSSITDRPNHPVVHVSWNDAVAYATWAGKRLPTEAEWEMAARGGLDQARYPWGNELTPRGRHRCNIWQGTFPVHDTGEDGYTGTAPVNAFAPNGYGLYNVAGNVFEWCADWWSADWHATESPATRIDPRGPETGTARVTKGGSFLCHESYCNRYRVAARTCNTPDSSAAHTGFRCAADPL

B1: FGE-27: Abz-… (peptide)
peptide: [2Abz]ATTPLCGPSRASILSGR
For B1, the Kd was determined as 40 nM.
